For test [1], the target named is Mus dunni endogenous virus (MDEV) receptor on M. dunni cells (Mus dunni).
For test [2] the target is unchanged. This is another data set of the same source.
For test [3] the target is unchanged. This is another data set of the same source.
Test [4] has as its target Mus dunni endogenous virus (MDEV) receptor on primary human dermal fibroblasts (human).

A value given as a limit tells only on which side of the number the result lay.

The results in this text go back to patent US6136598.

In the case of “Mus dunni endogenous virus (MDEV) envelope protein”, in test [1], the Fold Interference, LAPSN(PD223) titer on dunni/N2 against dunni/N2 + MDEV (fold interference) was greater than 20000. In addition, the log10 of the fold interference, LAPSN(MDEV) on dunni/LN cells infected with MDEV (log10 of the fold interference) in test [2] worked out at 5.5. Besides, in test [3], the LAPSN titer, MDEV pseudotype on M. dunni cells infected with MDEV (6 × 10^5 on uninfected cells) was 3 FFU/ml. The same substance displayed an inhibition of transduction, LAPSN(MDEV) on HDF cells infected with MDEV in test [4] of 100 fold.

In turn, “envelope protein of NZB xenotropic virus” returned an LAPSN titer, MDEV pseudotype on M. dunni cells infected with xenotropic virus (6 × 10^5 on uninfected cells) in test [3] of 400000 FFU/ml. “envelope protein of amphotropic virus (AM-MLV)” registered an LAPSN titer, MDEV pseudotype on M. dunni cells infected with amphotropic virus (6 × 10^5 on uninfected cells) in test [3] of 400000 FFU/ml. Substance “envelope protein of polytropic (MCF) virus strain 98D” had an LAPSN titer, MDEV pseudotype on M. dunni cells infected with polytropic virus (6 × 10^5 on uninfected cells) in test [3] of 400000 FFU/ml.

As for “Balb/c 3T3 IdU-induced retrovirus (BIRV) envelope”, in test [3], the LAPSN titer, BIRV pseudotype on M. dunni cells infected with MDEV (8 × 10^4 on uninfected cells) is 60000 FFU/ml. For the substance “envelope protein of amphotropic MLV strain 4070A”, the Fold Interference, LAPSN(PA317) titer on dunni/N2 against dunni/N2 + MDEV (fold interference) in test [1] amounted to 1.
